Source: patent US20110070245

Molecular target: IMP-1 (IGF2BP1) (Homo sapiens) (UniProt Q9NZI8)
Assay: pulldown
Settings: A549 cells

IMP-1 (IGF2BP1) (Homo sapiens), sequence (Q9NZI8 whole entry): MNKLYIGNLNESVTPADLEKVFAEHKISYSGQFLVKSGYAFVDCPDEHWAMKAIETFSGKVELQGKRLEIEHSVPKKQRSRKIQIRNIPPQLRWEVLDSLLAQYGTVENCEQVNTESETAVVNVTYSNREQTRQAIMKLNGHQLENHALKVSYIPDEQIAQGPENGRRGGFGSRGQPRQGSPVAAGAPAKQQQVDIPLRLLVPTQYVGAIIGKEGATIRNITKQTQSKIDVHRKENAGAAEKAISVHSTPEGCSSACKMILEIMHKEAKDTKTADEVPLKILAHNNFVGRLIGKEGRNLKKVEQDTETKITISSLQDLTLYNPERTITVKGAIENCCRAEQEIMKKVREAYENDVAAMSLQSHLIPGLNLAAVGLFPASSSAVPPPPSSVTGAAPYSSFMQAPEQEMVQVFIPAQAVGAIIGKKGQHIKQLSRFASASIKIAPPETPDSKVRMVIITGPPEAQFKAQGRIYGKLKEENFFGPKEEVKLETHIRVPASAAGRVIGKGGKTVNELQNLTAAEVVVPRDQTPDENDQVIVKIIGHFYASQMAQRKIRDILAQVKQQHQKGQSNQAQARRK

Substance	binding signal (fold IP/total RNA) (RIP-microarray)	binding signal (fold IP/total RNA) (RNA immunoprecipitation (FLAG then HA) and cDNA microarray)
AMIGO2 mRNA	5.65	
DDX1 mRNA	34.2	
SMAD3 mRNA		720
SYNGR3 mRNA	12.3	
RAN mRNA	81.9	
RNF20 mRNA	2.01	
L3MBTL3 mRNA	3.19	
HMBS mRNA	2.48	
LPGAT1 mRNA	3.14	
CPSF6 mRNA	2.24	
LASP1 mRNA	2.66	
SYNJ2 mRNA	2.56	
C20orf142 mRNA	3.21	
UBE2S mRNA	6.78	
C17orf39 mRNA	2.57	
CRYAA mRNA	9.77	
PDF mRNA	4.18	
YTHDF1 mRNA	7.99	
PTP4A1 mRNA	3	
MGC27277 mRNA	3.43	
